Columns and labels:
[1] = molecular target: T1, LOV domain of White Collar 1 (WC-1) bound to the Gal4 DNA binding domain (Neurospora crassa, UniProt Q01371 381-508); assay: two-hybrid; FUN-LOV switch in S. cerevisiae; destabilized firefly luciferase reporter under P_(GAL1) or P_(5XGAL1); luminescence of living cells normalised by OD600; constant white light (100 µmol m^-2 s^-1) or constant blue light (20 µmol m^-2 s^-1), 30°C; fold induction against the average background in constant darkness; conditions: partners not purified
T1 construct: White Collar 1 (WC-1), blue-light photoreceptor of Neurospora crassa; LOV domain only; also called WC-1 LOV-BD; WC-1 LOV plus GAL4-DBD; source: yeast two-hybrid fusion; S. cerevisiae BY4741 (wt or gal4Δ-gal80Δ), episomal pRS423, ADH1 promoter
T1 sequence (looked up): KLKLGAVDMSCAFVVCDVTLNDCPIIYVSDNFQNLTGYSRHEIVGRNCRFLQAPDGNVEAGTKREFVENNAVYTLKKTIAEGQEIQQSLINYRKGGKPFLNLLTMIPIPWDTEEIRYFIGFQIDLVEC

[2] = molecular target: T1, LOV domain of White Collar 1 (WC-1) …; assay: two-hybrid; FUN-LOV switch in S. cerevisiae; luciferase activity in protein extracts of cells grown 8 h in constant light (LL) against constant darkness (DD), normalised to total protein; conditions: partners not purified

- fold induction of the luciferase reporter, blue light over darkness (P_(5XGAL1)) [1]: 1320 fold
- fold induction of the luciferase reporter, white light over darkness (P_(5XGAL1)) [1]: 1220 fold
- fold induction of luciferase activity in protein extracts, LL over DD [2]: ~2500 fold
B1: full-length VIVID (VVD) tethered to the Gal4 transactivation domain (natural protein, Neurospora crassa, UniProt Q9C3Y6 1-186, looked up)
chain: MSHTVNSSTMNPWEVEAYQQYHYDPRTAPTANPLFFHTLYAPGGYDIMGYLIQIMNRPNPQVELGPVDTSCALILCDLKQKDTPIVYASEAFLYMTGYSNAEVLGRNCRFLQSPDGMVKPKSTRKYVDSNTINTMRKAIDRNAEVQVEVVNFKKNGQRFVNFLTMIPVRDETGEYRYSMGFQCETE
notes: VIVID (VVD), blue-light photoreceptor of Neurospora crassa; full-length VVD and not just VVD-36; also called VVD-AD; VVD plus GAL4-AD; source: yeast two-hybrid fusion; S. cerevisiae BY4741 (wt or gal4Δ-gal80Δ), episomal pRS425, ADH1 promoter

From publication PMC6069114, “Fungal Light-Oxygen-Voltage Domains for Optogenetic Control of Gene Expression and Flocculation in Yeast” (mBio, 2018)
